The text below walks through data of patent US20040138134A1.

Test [1] deals with natriuretic peptide receptor on C3H10T1/2 cells. Kind of test: cell-based or functional assay.
Test [2] has the same target. In words: cell-based or functional assay. This is another data set of the same source.

Where two headings read alike, the source gives them in different places. Where no end group is shown, it is not given here.

B1: CNP variant SEQ ID NO:63 (peptide)
chain: CFGLKLDRIGSMSGAGC
Take B1: the % relative binding (cGMP, Biotrak EIA, peptide at 10^-6 M) in test [1] is -1.11%.

B2: CNP variant SEQ ID NO:36 (peptide)
chain: CFGLKLQRIGSMSGLGC
B2: in test [1], the % relative binding (cGMP, Biotrak EIA, peptide at 10^-6 M) was -17.1%.

B3: CNP variant SEQ ID NO:20 (peptide)
chain: CHFGLKLDRIGSC
On to B3, for which the % relative binding (cGMP, Biotrak EIA, peptide at 10^-6 M) in test [2] is 11.9%.

B4: CNP variant SEQ ID NO:6 (peptide)
chain: CAGLKLDRIGSMSGLGC
Take B4: the % relative binding (cGMP, Biotrak EIA, peptide at 10^-6 M) in test [2] was 43.8%.

B5: CNP variant SEQ ID NO:13 (peptide)
chain: CHFGLKLDRIGAQSC
For B5, the % relative binding (cGMP, Biotrak EIA, peptide at 10^-6 M) in test [2] came out at 26.5%.

B6: CNP variant SEQ ID NO:53 (peptide)
chain: CFGLKLDRTGSMSGLGC
For the molecule B6, in test [1], the % relative binding (cGMP, Biotrak EIA, peptide at 10^-6 M) is -1.95%.

B7: CNP variant SEQ ID NO:29 (peptide)
chain: CLGLKLDRIGSMSGLGC
In the case of B7, in test [1], the % relative binding (cGMP, Biotrak EIA, peptide at 10^-6 M) was determined as 6.25%.

B8: CNP 1-22 (native human CNP, 22-mer) (peptide)
chain: GLSKGCFGLKLDRIGSMSGLGC
Take B8: the % relative binding (cGMP, Biotrak EIA, peptide at 10^-6 M) in test [2] turned out to be 100%.

B9: CNP variant SEQ ID NO:45 (peptide)
chain: CFGLKADRIGSMSGLGC
Consider B9, for which the % relative binding (cGMP, Biotrak EIA, peptide at 10^-6 M) in test [1] was found to be 11.3%.

B10: CNP variant SEQ ID NO:65 (peptide)
chain: CFGLKLDRIGSWSGLGC
As for B10, the % relative binding (cGMP, Biotrak EIA, peptide at 10^-6 M) in test [1] came out at 66.5%.

B11: CNP variant SEQ ID NO:49 (peptide)
chain: CFGLKLDKIGSMSGLGC
As to B11, the % relative binding (cGMP, Biotrak EIA, peptide at 10^-6 M) in test [1] worked out at 21.5%.

B12: CNP variant SEQ ID NO:26 (peptide)
chain: CFGLKLARIGSASGLGC
Consider B12, for which, in test [1], the % relative binding (cGMP, Biotrak EIA, peptide at 10^-6 M) was determined as 5.75%.

B13: CNP variant SEQ ID NO:52 (peptide)
chain: CFGLKLDRVGSMSGLGC
In the case of B13, the % relative binding (cGMP, Biotrak EIA, peptide at 10^-6 M) in test [1] came to 27.1%.

B14: CNP variant SEQ ID NO:17 (peptide)
chain: CFGLKLDRIGAMC
modifications: ends and bridges not checked; cysteine pairing not given here
With B14, in test [2], the % relative binding (cGMP, Biotrak EIA, peptide at 10^-6 M) was determined as 3.4%.

B15: CNP variant SEQ ID NO:48 (peptide)
chain: CFGLKLDHIGSMSGLGC
Take B15: the % relative binding (cGMP, Biotrak EIA, peptide at 10^-6 M) in test [1] stood at 13.5%.

B16: CNP variant SEQ ID NO:19 (peptide)
chain: CFGLKLDRIGAQC
Turning to B16, in test [2], the % relative binding (cGMP, Biotrak EIA, peptide at 10^-6 M) was determined as 3.8%.

B17: CNP variant SEQ ID NO:33 (peptide)
chain: CHGLKLDRIGSMSGLGC
B17: the % relative binding (cGMP, Biotrak EIA, peptide at 10^-6 M) in test [1] is 5.7%.

B18: CNP variant SEQ ID NO:60 (peptide)
chain: CFGLKLDRIGSMSKLGC
As for B18, the % relative binding (cGMP, Biotrak EIA, peptide at 10^-6 M) in test [1] amounted to 49.2%.

B19: CNP variant SEQ ID NO:55 (peptide)
chain: CFGLKLDRIGGMSGLGC
For the molecule B19, in test [1], the % relative binding (cGMP, Biotrak EIA, peptide at 10^-6 M) amounted to 27.8%.

B20: CNP variant SEQ ID NO:14 (peptide)
chain: CFGLKLDRIGSMSC
In the case of B20, in test [2], the % relative binding (cGMP, Biotrak EIA, peptide at 10^-6 M) turned out to be 29.9%.

B21: CNP variant SEQ ID NO:64 (peptide)
chain: CFGLKLDRIGSMSGGGC
For the molecule B21, the % relative binding (cGMP, Biotrak EIA, peptide at 10^-6 M) in test [1] is -10.1%.

B22: CNP variant SEQ ID NO:68 (peptide)
chain: CFGLKLDRIGSSSGLGC
B22: the % relative binding (cGMP, Biotrak EIA, peptide at 10^-6 M) in test [1] came out at 62.5%.

B23: CNP variant SEQ ID NO:50 (peptide)
chain: CFGLKLDQIGSMSGLGC
In the case of B23, in test [1], the % relative binding (cGMP, Biotrak EIA, peptide at 10^-6 M) is 12%.

B24: CNP variant SEQ ID NO:69 (peptide)
chain: CFGLKLDRIGSGSGLGC
As for B24, the % relative binding (cGMP, Biotrak EIA, peptide at 10^-6 M) in test [1] amounted to 62.1%.

B25: CNP variant SEQ ID NO:23 (peptide)
chain: CHFGLKLDRIC
For B25, the % relative binding (cGMP, Biotrak EIA, peptide at 10^-6 M) in test [2] was 3.8%.

B26: CNP variant SEQ ID NO:38 (peptide)
chain: CFGLKLIRIGSMSGLGC
As for B26, in test [1], the % relative binding (cGMP, Biotrak EIA, peptide at 10^-6 M) is 7.23%.

B27: CNP variant SEQ ID NO:51 (peptide)
chain: CFGLKLDRLGSMSGLGC
For the molecule B27, the % relative binding (cGMP, Biotrak EIA, peptide at 10^-6 M) in test [1] was determined as 14.2%.

B28: CNP variant SEQ ID NO:32 (peptide)
chain: CVGLKLDRIGSMSGLGC
With B28, in test [1], the % relative binding (cGMP, Biotrak EIA, peptide at 10^-6 M) was 5.74%.

B29: CNP variant SEQ ID NO:47 (peptide)
chain: CFGLKVDRIGSMSGLGC
Regarding B29, in test [1], the % relative binding (cGMP, Biotrak EIA, peptide at 10^-6 M) was 66.7%.

B30: CNP variant SEQ ID NO:37 (peptide)
chain: CFGLKLNRIGSMSGLGC
Consider B30, for which the % relative binding (cGMP, Biotrak EIA, peptide at 10^-6 M) in test [1] is 17.2%.

B31: CNP variant SEQ ID NO:58 (peptide)
chain: CFGLKLDRIGSMSALGC
As for B31, in test [1], the % relative binding (cGMP, Biotrak EIA, peptide at 10^-6 M) turned out to be 53.6%.

B32: CNP variant SEQ ID NO:22 (peptide)
chain: CFGLKLDRIGC
In the case of B32, in test [2], the % relative binding (cGMP, Biotrak EIA, peptide at 10^-6 M) is 4.2%.

B33: CNP variant SEQ ID NO:16 (peptide)
chain: CFGLKLDRIGSMC
With B33, the % relative binding (cGMP, Biotrak EIA, peptide at 10^-6 M) in test [2] worked out at 17.3%.

B34: CNP variant SEQ ID NO:27 (peptide)
chain: CAGLKLARIGSASGLGC
Take B34: the % relative binding (cGMP, Biotrak EIA, peptide at 10^-6 M) in test [1] is -10.4%.

B35: CNP variant SEQ ID NO:66 (peptide)
chain: CFGLKLDRIGSHSGLGC
B35: the % relative binding (cGMP, Biotrak EIA, peptide at 10^-6 M) in test [1] stood at 66.2%.

B36: CNP variant SEQ ID NO:34 (peptide)
chain: CTGLKLDRIGSMSGLGC
For B36, the % relative binding (cGMP, Biotrak EIA, peptide at 10^-6 M) in test [1] is -6.9%.

B37: CNP variant SEQ ID NO:28 (peptide)
chain: CIGLKLDRIGSMSGLGC
Regarding B37, in test [1], the % relative binding (cGMP, Biotrak EIA, peptide at 10^-6 M) was determined as 13.9%.

B38: CNP variant SEQ ID NO:43 (peptide)
chain: CFGLLLDRIGSMSGLGC
With B38, the % relative binding (cGMP, Biotrak EIA, peptide at 10^-6 M) in test [1] came out at 29.7%.

B39: CNP variant SEQ ID NO:61 (peptide)
chain: CFGLKLDRIGSMSGQGC
Consider B39, for which, in test [1], the % relative binding (cGMP, Biotrak EIA, peptide at 10^-6 M) is -3.47%.

B40: CNP variant SEQ ID NO:21 (peptide)
chain: CFGLKLDRIGSC
In the case of B40, in test [2], the % relative binding (cGMP, Biotrak EIA, peptide at 10^-6 M) was 22.7%.

B41: CNP variant SEQ ID NO:62 (peptide)
chain: CFGLKLDRIGSMSGMGC
Turning to B41, the % relative binding (cGMP, Biotrak EIA, peptide at 10^-6 M) in test [1] amounted to 51.3%.

B42: CNP variant SEQ ID NO:15 (peptide)
chain: CFGLKLDRIGAQSC
For B42, the % relative binding (cGMP, Biotrak EIA, peptide at 10^-6 M) in test [2] stood at 20.6%.

B43: CNP variant SEQ ID NO:35 (peptide)
chain: CFGLKLERIGSMSGLGC
Take B43: the % relative binding (cGMP, Biotrak EIA, peptide at 10^-6 M) in test [1] was found to be 9.45%.

B44: CNP variant SEQ ID NO:54 (peptide)
chain: CFGLKLDRIGAMSGLGC
In the case of B44, the % relative binding (cGMP, Biotrak EIA, peptide at 10^-6 M) in test [1] stood at 54.5%.

B45: CNP variant SEQ ID NO:41 (peptide)
chain: CFGIKLDRIGSMSGLGC
Regarding B45, the % relative binding (cGMP, Biotrak EIA, peptide at 10^-6 M) in test [1] worked out at 47.4%.

B46: CNP variant SEQ ID NO:39 (peptide)
chain: CFGLKLMRIGSMSGLGC
B46: in test [1], the % relative binding (cGMP, Biotrak EIA, peptide at 10^-6 M) was determined as 7.78%.

B47: CNP variant SEQ ID NO:30 (peptide)
chain: CMGLKLDRIGSMSGLGC
As for B47, the % relative binding (cGMP, Biotrak EIA, peptide at 10^-6 M) in test [1] was -1.34%.

B48: CNP variant SEQ ID NO:67 (peptide)
chain: CFGLKLDRIGSKSGLGC
In the case of B48, the % relative binding (cGMP, Biotrak EIA, peptide at 10^-6 M) in test [1] turned out to be 66.9%.

B49: CNP variant SEQ ID NO:56 (peptide)
chain: CFGLKLDRIGTMSGLGC
On to B49, for which the % relative binding (cGMP, Biotrak EIA, peptide at 10^-6 M) in test [1] was 74.1%.

B50: CNP variant SEQ ID NO:57 (peptide)
chain: CFGLKLDRIGNMSGLGC
For B50, the % relative binding (cGMP, Biotrak EIA, peptide at 10^-6 M) in test [1] was found to be 27.4%.

B51: CNP variant SEQ ID NO:42 (peptide)
chain: CFGVKLDRIGSMSGLGC
For the molecule B51, the % relative binding (cGMP, Biotrak EIA, peptide at 10^-6 M) in test [1] was found to be 64.2%.

B52: CNP variant SEQ ID NO:40 (peptide)
chain: CFGAKLDRIGSMSGLGC
With B52, the % relative binding (cGMP, Biotrak EIA, peptide at 10^-6 M) in test [1] was 20.2%.

B53: CNP variant SEQ ID NO:24 (peptide)
chain: CAGLKLARIGSMSGLGC
Turning to B53, in test [1], the % relative binding (cGMP, Biotrak EIA, peptide at 10^-6 M) was -5.85%.

B54: CNP variant SEQ ID NO:46 (peptide)
chain: CFGLKIDRIGSMSGLGC
For the molecule B54, the % relative binding (cGMP, Biotrak EIA, peptide at 10^-6 M) in test [1] was found to be 88.1%.

B55: CNP variant SEQ ID NO:59 (peptide)
chain: CFGLKLDRIGSMSLLGC
For the molecule B55, in test [1], the % relative binding (cGMP, Biotrak EIA, peptide at 10^-6 M) is 15.3%.

B56: CNP variant SEQ ID NO:44 (peptide)
chain: CFGLMLDRIGSMSGLGC
Regarding B56, in test [1], the % relative binding (cGMP, Biotrak EIA, peptide at 10^-6 M) is 5.42%.

B57: CNP variant SEQ ID NO:18 (peptide)
chain: CFGLKLDRIGSQC
As to B57, the % relative binding (cGMP, Biotrak EIA, peptide at 10^-6 M) in test [2] was 11.8%.

B58: CNP variant SEQ ID NO:31 (peptide)
chain: CWGLKLDRIGSMSGLGC
As for B58, the % relative binding (cGMP, Biotrak EIA, peptide at 10^-6 M) in test [1] was -10.8%.
